In patent US20200010507A1:
Where no end group is shown, it is not given here. [ ]: non-standard residue; d: D form. NMeE = CN[C@@H](CCC(=O)O)C(=O)O

Target: ex vivo seeds extracted from the hearts of eight ATTR patients
Assay: cell-based or functional assay

peptide concentration giving full inhibition of amyloid seeding (tested as the cocktail TabFH2): 360 µM
B1: TabF2 (peptide)
peptide: RRRRHVAHPFV[NMeE]FTE
